From patent US6399314B1, “Methods of detection of amyloidogenic proteins” (American Cyanamid Company, priority 1999, dated 2002)

Columns and labels:
β-amyloid protein 1-40 = biological target: T1, β-amyloid protein 1-40 (Homo sapiens, UniProt P05067); assay: Fluorescence spectroscopy of Congo red complexes with amyloid peptide; assay type: binding
T1 construct: Aβ (1-40) was dissolved in 100% hexafluoroisopropanol
Excerpt: 3. Fluorescence spectroscopy was used to differentiate complexes of Congo red. Congo red binds to preformed fibrils as well as to intermediate aggregate forms of the amyloid polypeptide. […] The fluorescence excitation spectrum of Congo red in the aggregate-bound state is also red shifted relative to the free form of the […]. Changes in the fluorescence properties of Congo red are dependent on the aggregated state of the […]. The differences in the observed spectral characteristics of the coaggregates and complexes of the fibrillar polypeptide with Congo red are due to the differences in the relative hydrophobicity of the binding sites and to the number of bound Congo red molecules in the complexes with preformed fibrils and coaggregates.
The fluorescence emission spectra of complexes of Congo red were obtained after diluting the peptide fivefold into a buffered solution. Congo red was added to freshly diluted fibrillar peptide and the fluorescence spectrum was scanned at a final concentration of 10 μM of peptide. The concentrations of peptide and Congo red in the fluorescence assay were 10 μM and 8.6 μM respectively. The differences in the fluorescence intensities and emission wavelengths of the coaggregates and preformed aggregate-complexes, were due to the relative differences in the hydrophobicity of the binding sites in the two instances.

[1] = biological target: T2, aggregated peptide (Aβ(1-40)) (Homo sapiens, UniProt P05067); assay: Quenching of thioflavin fluorescence by titration with Congo red; assay type: binding; conditions: for Mode of binding to aggregated peptide: Congo red and thioflavin together on aggregated peptide
T2 construct: Aβ(1-40) was purchased from Anaspec (San Jose, Calif.); purchased Anaspec (San Jose, Calif.); host or cells: synthetic peptide
Excerpt: In these experiments, thioflavin was complexed with aggregated peptide prior to titration with increasing amounts of Congo red. The resulting decrease in fluorescence intensity is due to energy transfer of the fluorescence emission of thioflavin to Congo red. Therefore, assays that rely on thioflavin alone are likely to generate false positives in primary assays, while spectroscopic assays described in this invention would identify the more promising inhibitors of amyloidogenesis.
(§1) Spectroscopic Assays. To determine the extent of aggregation, aliquots of the peptide were removed at various time intervals (up to nine hours), and diluted into PBS buffer-containing 10 μM thioflavin. The final concentrations of peptide and thioflavin in the fluorescence assay were 10 μM. The fluorescence intensities of the peptide-thioflavin complex were measured at excitation and emission wavelengths of 435 and 485 nm, respectively, after the reaction had equilibrated for five minutes. Fluorescence spectral scans were made using 435 nm excitation and 485 nm emission wavelengths using a SPEX™ fluorolog-2 spectrofluorometer (Instruments S.A.®, Jobin Yvon-Spex, Edison, N.J.). For the Congo red experiments, peptide-thioflavin complex was titrated with increasing concentrations of Congo red from 0.1 to 3.5 micromolar concentrations. The fluorescence intensity changes were measured at the above-mentioned spectral wavelengths. When fluorescence intensities were measured in a plate reader, the peptide was diluted into PBS buffer-containing 10 μM thioflavin, to a final volume of 100 μL.

Aβ (1-40) = biological target: T3, Aβ (1-40) (Homo sapiens, UniProt P05067); assay: CD spectroscopy of peptide aged in the presence of Congo red (coaggregates); assay type: biochemical; conditions: far-UV CD
T3 construct: Aβ (1-40) was dissolved in 100% hexafluoroisopropanol
Excerpt: Circular Dichroism Spectroscopy. Conformational change of the peptide from the random coil to the β-sheet form, during aging, was monitored using changes to the molar ellipticity of the peptide at 200, 218, or 225 nm. This assay was also used to determine if the changes in the CD spectra occurred concurrently with the changes in the fluorescence spectra of thioflavin. The CD spectrum of the peptide was scanned at various time points to correlate the formation of thioflavin-binding macromolecular assemblies with the appearance of β-sheet conformation.
CD spectra were recorded on a JASCO™ spectropolarimeter model J715 (Jasco, Easton, Md.) at room temperature in a 0.1 cm pathlength cell. Typically, the peptide samples were aliquoted at various time intervals for fluorescence and the CD spectra were scanned using the remaining solution. The CD spectra of the peptide were recorded in the far-UV between 190-260 nm. The spectral results are expressed as deg.[…].dmol^−1.
Amyloid peptide (Aβ) was aged in the absence and presence of Congo red as described below: Aβ (1-40) was dissolved in 100% hexafluoroisopropanol to produce a final concentration of 200 or 400 μM. To aid dissolution of peptide, the solution was sonicated briefly, for about five seconds. An appropriate volume of the peptide solution was transferred to an amber vial and the solvent was evaporated under a stream of nitrogen. […]

[2] = tested on: rat fetal (E18) hippocampal cultures; assay: Neurotoxicity assay (LDH release); assay type: cell-based; conditions: for Toxicity to neuronal cultures: 72 hour toxicity assay
Experimental: Neurotoxicity Assay. Peptide was aggregated according to the end points determined in the CD and fluorescence assay and applied to primary neuronal cell cultures to assess cytotoxicity of the aggregated peptide. The release of LDH was used to monitor cell viability in the presence of Aβ and Congo red.
Aβ(1-40) toxicity was assessed using eight day-in-vitro (DIV) rat fetal (E18) hippocampal cultures. The cells were cultured in 48-well dishes previously coated with […] 0.1 mg/ml of poly-L-lysine (100 μl/well) and, subsequently, with 100 μl/well of 5 μg/ml of mouse laminin. The cells were seeded at a density of 92,300 cells/well in a total volume of 500 μl of NEUROBASAL™ medium containing 1XB27 supplement, 5% heat inactivated and qualified fetal bovine serum, 0.5 mM glutamine, 50 μ/ml penicillin, and 0.05 mg/ml streptomycin, and were initially placed in humidified 5% CO2 in air. After twenty-four hours, the medium was replaced with fresh medium lacking the penicillin, streptomycin, and fetal bovine serum and the cultures were thereafter maintained in air containing 5% CO2 and 9% O2. Fresh medium was substituted into each well on day five. On the seventh day in vitro, the medium was replaced with antioxidant free B27 supplemented medium lacking the penicillin, streptomycin, and fetal bovine serum. The toxicity test was initiated on the eighth day in vitro by substituting into each well 500 μl of the medium used on day seven (as the control treatment) or an experimental solution prepared with the final (control) medium. Each experimental solution was tested on cultures contained in five wells. Toxicity was assessed on the eleventh day in vitro using the lactic acid dehydrogenase (LDH; Sigma 340-UV) assay. Aggregated peptide was diluted five-fold to a final concentration of 10 uM, for the toxicity assays. Complexes of Congo red with preformed aggregates and those formed in co-aggregates were tested in the cellular assays along with aggregated peptide in vehicle controls.

[3] = Thioflavin fluorescence assay of the extent of aggregation of Aβ(1-40) in different buffers/media; assay type: physicochemical; set-up: key to Percent Aggregation in HEPES: ++ indicates aggregates were formed but not quantitated because end point was not reached; conditions: rotary shaker 500 rpm
Excerpt: Fluorescence Spectroscopy. Thioflavin binds amyloid fibrils to induce a characteristic hyperchromic fluorescence shift in the spectrum (LeVine, J. Exp. Clin. Invest., 2:1-6, 1995). The induced fluorescence due to thioflavin is specific for amyloid β-pleated fibrils, but not for other β-sheet structures or for the soluble oligomeric forms of the peptide. Free thioflavin is a weak fluorophore with an excitation maximum at 330 nm. Upon binding to the amyloid fibrils, the fluorescence of thioflavin is enhanced with a red shift in the excitation spectrum by 100 nm, relative to the free form. We have used the increase in fluorescence intensity at excitation and emission wavelengths of 440 nm and 485 nm, respectively, to characterize the aggregation event.
as §1
Preparation ofAmyloid Peptide. Aβ(1-40) was purchased from Anaspec (San Jose, Calif.) and its chemical purity was verified using reverse phase HPLC, ESI-MS and protein sequencing methods. The lyophilized peptide was dissolved in hexafluoroisopropanol (HFIP) solvent to aid in disaggregation of peptide. Peptide in HFIP solvent, was stored at −80° C. Prior to use, peptide solution was thawed and the solvent was evaporated under a stream of nitrogen. The peptide was dissolved in buffer to obtain a concentration of 50 μM, sonicated approximately twenty to forty seconds, and then vortexed briefly, approximately five seconds or less, to aid dissohltion of peptide. To determine the effects of media on the rates of aggregation, peptide was dissolved in one of the following buffers: PBS, 50 mM HEPES™ or in NEUROBASAL™ medium. Peptide solutions were dispensed into microtiter plates at a final concentration of […] in 100 μL. Aggregation was initiated by shaking plates continuously in a rotary shaker.

T2 sequence (P05067 672-711 limits assumed): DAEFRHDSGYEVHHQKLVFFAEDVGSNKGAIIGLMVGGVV
T1 sequence (P05067 672-711 limits assumed): as above
T3 sequence (P05067 672-711 limits assumed): as above

## Nc1c(/N=N/c2ccc(-c3ccc(/N=N/c4cc(S(=O)(=O)[O-])c5ccccc5c4N)cc3)cc2)cc(S(=O)(=O)[O-])c2ccccc12.[Na+].[Na+] [Congo red]
β-amyloid protein 1-40; Congo red co-aggregated with the amyloid polypeptide
  Fluorescence enhancement relative to the free form: eight-fold
β-amyloid protein 1-40; complex between preformed fibrils and Congo red
  Fluorescence enhancement relative to the free form: two-fold
[1]
  Mode of binding to aggregated peptide: non-competitively
[1]; free thioflavin
  Quenching of fluorescence of free thioflavin: 50%
[1]; peptide-bound thioflavin, Congo red 0.1 to 3.5 micromolar
  Quenching of fluorescence of peptide-bound thioflavin: greater than one order of magnitude
Aβ (1-40)
  Effect on aggregation rate of the peptide: slowed down
[2]; Congo red complexed with preformed aggregates and in co-aggregates
  Effect on toxicity of Aβ: attenuates the toxicity
[2]; hippocampal cultures, LDH release
  Neuroprotection of cell cultures exposed to amyloid peptide: neuroprotective

## Cc1ccc2c(c1)sc(-c1ccc(N(C)C)cc1)[n+]2C.[Cl-] [thioflavin, Thioflavin T]
[1]
  Mode of binding to aggregated peptide: non-competitively

## Aβ (1-40): synthetic β-amyloid peptide corresponding to the first 40 amino acids of Aβ, purchased from Anaspec
[3]; aggregation time 0 hr
  Percent Aggregation in HEPES: 0%
  Percent Aggregation in PBS: 0%
[3]; aggregation time 0 hr, relative to thioflavin/Aβ fluorescence at 0 and 4 hr
  Percent Aggregation in NEUROBASAL Medium: 0%
[3]; aggregation time 1 hr
  Percent Aggregation in HEPES: 0%
  Percent Aggregation in NEUROBASAL Medium: 0%
  Percent Aggregation in PBS: 0%
[3]; aggregation time 2 hr
  Percent Aggregation in HEPES: 0%
  Percent Aggregation in NEUROBASAL Medium: 76%
  Percent Aggregation in PBS: 51%
[3]; aggregation time 4 hr
  Percent Aggregation in HEPES: ++
  Percent Aggregation in NEUROBASAL Medium: 100%
  Percent Aggregation in PBS: 100%
[2]; aggregated peptide (aged for four hours)
  Toxicity to neuronal cultures: toxic
[2]; fresh peptide
  Toxicity to neuronal cultures: non-toxic
